Experimental data: patent publication US20250171542A1 (ADEPT THERAPEUTICS, published 2025)

T1: canine PD-L1 (Acro Biosystems, Cat #PDL-C52H4) (canine, UniProt E2RKZ5 19-236)
T1 construct: not shown: The vendor's tag, probably a polyhistidine tag
T1 sequence: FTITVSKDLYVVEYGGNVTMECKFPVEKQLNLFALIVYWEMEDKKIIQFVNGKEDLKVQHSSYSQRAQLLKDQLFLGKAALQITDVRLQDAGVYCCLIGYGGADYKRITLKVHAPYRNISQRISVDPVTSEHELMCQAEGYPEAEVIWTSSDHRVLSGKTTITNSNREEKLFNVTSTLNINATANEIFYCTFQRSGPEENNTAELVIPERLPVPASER

T2: CD80 (Sino Biological, Cat #10698-H08H) (UniProt P33681 35-242)
T2 sequence (looked up): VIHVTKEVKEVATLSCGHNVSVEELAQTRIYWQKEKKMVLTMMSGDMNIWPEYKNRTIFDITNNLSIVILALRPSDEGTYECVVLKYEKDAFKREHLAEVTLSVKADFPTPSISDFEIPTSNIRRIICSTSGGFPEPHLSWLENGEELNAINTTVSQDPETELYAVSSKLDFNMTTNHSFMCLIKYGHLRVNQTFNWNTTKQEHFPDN

T3: CD86 (Sino Biological, Cat #10699-H08H) (UniProt P42081 24-245)
T3 sequence (looked up): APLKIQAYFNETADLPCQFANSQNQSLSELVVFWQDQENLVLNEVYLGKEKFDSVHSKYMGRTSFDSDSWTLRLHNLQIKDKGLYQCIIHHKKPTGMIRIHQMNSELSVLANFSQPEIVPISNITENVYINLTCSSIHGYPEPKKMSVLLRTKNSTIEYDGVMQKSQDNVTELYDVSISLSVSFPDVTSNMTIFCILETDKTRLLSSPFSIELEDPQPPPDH

T4: BH-H2 (Sino Biological, Cat #11559-H08H) (UniProt O75144 19-258)
T4 sequence (looked up): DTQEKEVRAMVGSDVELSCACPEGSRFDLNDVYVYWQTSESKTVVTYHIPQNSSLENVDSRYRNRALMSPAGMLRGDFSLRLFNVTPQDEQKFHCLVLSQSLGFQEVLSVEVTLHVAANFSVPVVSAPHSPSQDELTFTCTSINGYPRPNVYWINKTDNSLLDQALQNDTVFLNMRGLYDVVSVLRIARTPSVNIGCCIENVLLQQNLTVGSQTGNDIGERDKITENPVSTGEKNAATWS

T5: B7-H3 (Sino Biological, Cat #11188-H08H) (UniProt Q5ZPR3 29-461)
T5 sequence (looked up): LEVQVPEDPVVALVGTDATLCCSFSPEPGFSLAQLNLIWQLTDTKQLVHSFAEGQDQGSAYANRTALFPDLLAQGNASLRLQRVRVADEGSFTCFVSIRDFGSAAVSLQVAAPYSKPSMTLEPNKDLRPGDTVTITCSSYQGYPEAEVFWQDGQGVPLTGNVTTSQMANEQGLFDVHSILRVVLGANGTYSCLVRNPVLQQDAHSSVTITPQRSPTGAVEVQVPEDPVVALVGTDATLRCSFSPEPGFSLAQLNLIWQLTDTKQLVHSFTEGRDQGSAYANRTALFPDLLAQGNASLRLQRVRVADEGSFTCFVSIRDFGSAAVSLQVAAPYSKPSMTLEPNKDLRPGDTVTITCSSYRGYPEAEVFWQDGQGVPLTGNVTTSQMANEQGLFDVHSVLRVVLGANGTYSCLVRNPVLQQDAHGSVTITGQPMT

T6: PD-L2 (Sino Biological, Cat #10292-H08H) (UniProt Q9BQ51 20-219)
T6 sequence (looked up): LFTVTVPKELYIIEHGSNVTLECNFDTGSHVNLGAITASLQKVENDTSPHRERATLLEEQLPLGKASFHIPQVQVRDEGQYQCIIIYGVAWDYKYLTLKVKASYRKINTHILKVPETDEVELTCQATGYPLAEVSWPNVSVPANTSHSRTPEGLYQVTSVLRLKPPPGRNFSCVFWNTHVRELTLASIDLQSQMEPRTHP

B1: 73C8 (antibody, human IgG1, V domains shown)
VH: QEQLEESGGGLVQPEGSLTLTCTVSGFSFSGDYYMSWVRQAPGKGLEWVASIYTGSLNTYYATWAKGRFTISLTSSTTVTLQMTSLTAADTATYFCARRNKNADYGHFDLWGPGTLVTVSS
VL: YDMTQTPASVEVAVGGTVTIKCQASQSINDRLAWYQQKPGQPPKLLIYAASTLASGVPSRFRGSGSGTDFTLTISDLECADAATYYCQQGWTVSSLDNAFGGGTEVVAM
B2: 32E2 (antibody, human IgG1, V domains shown)
VH: QEQLEESGGDLVKPEGSLTLTCTASGFSFSSSYYMSWVRQAPGMGLEWIASISGGVTDNAYYASWAKGRFTVSKTSSTTVTLQLTSLTAADTATYFCARDSSSGYFFLLWGPGTLVTVSS
VL: LVMTQTPSSVSAAVGGTVTINCQASQNIYSNLAWYQQKPGQRPKLLIFGASNLRSGVPSRFKGSGSGTEYTLTISDLECADAATYYCQEGYSIGNVDNPFGGGTEVVVK
B3: 33E8 (antibody, human IgG1, V domains shown)
VH: QSLEESGGDLVKPGASLTLTCTASGFYFSSGYDMSWVRQAPGKGLEWIASIFTTSGSTWYANWAKGRFTISKTSSTTVTLQMTSLTDADTATYFCTKDGVGSFYMNLWGPGTLVTVSS
VL: LVMTQTPASVEVAVGGTVTIKCQASQTIGSNLAWYQQRPGQPPKLLIYKAFTLASGVSSRFKGSGSGTQFTLTISGVECADAATYYCQQGATRINIDNAFGGGTEVVVK
B4: 28B3 (antibody, human IgG1, V domains shown)
VH: QSVEESGGRLVTPGTPLTLSCTASGFSLSSYYMIWVRQAPGKGLEYIGYVYTGSGNTWYASWAKGRFAISKASTTVDLMITSPTTEDTATYFCASGADGVYDWGWDIWGPGTLVTVSL
VL: DIVMTQTPASVEAAVGDTVTIKCQASQSIYSLLAWYQQKPGQRPKLLIAGASNLESGVPSRFSGSGSGTEYTLTISALECADAATYYCQNNYDSGRIYGLAFGGGTEVVVK
B5: 74A9 (antibody, human IgG1, V domains shown)
VH: QSVEESGGRLVTPGTPLTLTCAVSGFSLSTYALGWVRQAPGKGLEWIGSISIGGATYYASWAKGRFTISKTSTTVDLKIASPTTEDTATYFCARNVDSIYLDAFHTWGPGTLVTVSL
VL: DIVMTQTPASVEAAVGGTVTIKCQASQNIYNNLAWYQQKPGQPPKLLIYRASTLASGVPSRFKGSGSGTEYTLTISDLECDDAATYYCQTYYLTTTTNAFGGGTEVVVK

These binders were tested against mouse PD-L1 (Sino Biological, Cat #50010-M08H) (mouse, UniProt Q9EP73 19-238) (assay: ELISA).
Chain of mouse PD-L1 (Sino Biological, Cat #50010-M08H) (Q9EP73 19-238 limits assumed, stated change not applied): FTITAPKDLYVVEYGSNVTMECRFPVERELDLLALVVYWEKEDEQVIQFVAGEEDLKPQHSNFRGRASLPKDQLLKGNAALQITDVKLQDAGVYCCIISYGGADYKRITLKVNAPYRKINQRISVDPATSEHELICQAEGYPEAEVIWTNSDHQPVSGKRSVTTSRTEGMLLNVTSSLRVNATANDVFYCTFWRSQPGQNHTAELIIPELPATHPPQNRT

| Binder | binding result |
| --- | --- |
| B1 | no binding |
| B2 | no binding |
| B3 | no binding |
| B4 | no binding |
| B5 | no binding |

Each binder was assayed against T7, rat PD-L1 (Sino Biological, Cat #80450-R08H) (rat, UniProt D4AE25 19-239) (assay: ELISA).
T7 construct: not shown: The vendor's polyhistidine tag
T7 sequence (D4AE25 entry or part of it R08H R08H limits assumed): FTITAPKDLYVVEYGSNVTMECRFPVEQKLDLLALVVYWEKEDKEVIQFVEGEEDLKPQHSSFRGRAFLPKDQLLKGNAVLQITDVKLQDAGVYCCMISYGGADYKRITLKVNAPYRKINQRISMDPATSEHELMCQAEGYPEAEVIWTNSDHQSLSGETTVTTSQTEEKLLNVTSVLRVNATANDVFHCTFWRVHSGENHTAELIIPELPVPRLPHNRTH

| Binder | binding result |
| --- | --- |
| B1 | no binding |
| B2 | no binding |
| B3 | no binding |
| B4 | no binding |
| B5 | no binding |

These binders were tested against T1, canine PD-L1 (Acro Biosystems, Cat …) (assay: ELISA).

| Binder | binding result |
| --- | --- |
| B1 | no binding |
| B2 | no binding |
| B3 | no binding |
| B4 | no binding |
| B5 | no binding |

Each binder was assayed against T2, CD80 (Sino Biological, Cat #10698-H08H) (assay: ELISA).

| Binder | binding result |
| --- | --- |
| B1 | no binding |
| B2 | no binding |
| B3 | no binding |
| B4 | no binding |
| B5 | no binding |

Each binder was assayed against T3, CD86 (Sino Biological, Cat #10699-H08H) (assay: ELISA).

| Binder | binding result |
| --- | --- |
| B1 | no binding |
| B2 | no binding |
| B3 | no binding |
| B4 | no binding |
| B5 | no binding |

These binders were tested against T4, BH-H2 (Sino Biological, Cat #11559-H08H) (assay: ELISA).

| Binder | binding result |
| --- | --- |
| B1 | no binding |
| B2 | no binding |
| B3 | no binding |
| B4 | no binding |
| B5 | no binding |

The binders below were run against T5, B7-H3 (Sino Biological, Cat #11188-H08H) (assay: ELISA).

| Binder | binding result |
| --- | --- |
| B1 | no binding |
| B2 | no binding |
| B3 | no binding |
| B4 | no binding |
| B5 | no binding |

The binders below were run against T6, PD-L2 (Sino Biological, Cat #10292-H08H) (assay: ELISA).

| Binder | binding result |
| --- | --- |
| B1 | no binding |
| B2 | no binding |
| B3 | no binding |
| B4 | no binding |
| B5 | no binding |

These binders were tested against T8, human PD-L1 expressed on cell surface (human, UniProt Q9NZQ7 19-290) (assay: cell-based or functional assay).
T8 sequence (Q9NZQ7 19-290 limits assumed): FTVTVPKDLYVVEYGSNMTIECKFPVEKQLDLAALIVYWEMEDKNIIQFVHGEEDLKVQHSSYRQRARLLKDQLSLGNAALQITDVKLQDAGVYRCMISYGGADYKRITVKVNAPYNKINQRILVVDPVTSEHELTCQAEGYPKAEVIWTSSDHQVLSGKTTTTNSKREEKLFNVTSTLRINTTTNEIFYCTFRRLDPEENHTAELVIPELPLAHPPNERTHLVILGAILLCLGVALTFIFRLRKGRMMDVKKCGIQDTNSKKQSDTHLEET

| Binder | Internalization (%), FACS, 0.25 µg/ml, 2 h [%] | Internalization (%), FACS, 0.25 µg/ml, 4 h [%] | Internalization (%), FACS, 0.5 µg/ml, 2 h [%] | Internalization (%), FACS, 0.5 µg/ml, 4 h [%] | Internalization (%), FACS, 1 µg/ml, 2 h [%] | Internalization (%), FACS, 1 µg/ml, 4 h [%] | Internalization (%), FACS, 2 µg/ml, 2 h [%] | Internalization (%), FACS, 2 µg/ml, 4 h [%] |
| --- | --- | --- | --- | --- | --- | --- | --- | --- |
| B1 | 22 | 15.6 | 17.8 | 23 | 19.5 | 15.7 | 22.5 | 21.7 |
| B2 | 2.2 | -25.9 | 0.4 | 5.6 | 1.1 | 7.2 | 2.4 | 7.6 |
| B3 | 20.9 | 21.6 | 22.8 | 25.8 | 20.4 | 23.3 | 29.6 | 30.2 |
| B4 | 20.4 | 17.6 | 12 | 19.9 | 15.3 | 15.5 | 8.3 | 6 |
| B5 | 11.5 | 11 | 13.2 | 12 | 17.7 | 9.2 | 13.9 | 11.7 |

The binders below were run against T8, human PD-L1 expressed on cell surface (assay: flow cytometry, MDA-MB-231-GFP cells).
Protocol: Cells were then resuspended in FACS buffer (1×DPBS/1% FBS) at 10⁶/ml concentration. One hundred microliter (100 μl) of cells were aliquoted into a single well in 96 well plates. The antibodies to be tested were serially diluted at 1:3 fold starting at 15 ug/mL and were then added into each well. The antibodies were mixed with cells and the mixtures were incubated on ice for 1 hour. […] After washing with FACS buffer, stained cells were resuspended at diluted […] (Biolegend, Cat #420404, used at 1:100 dilution) and analyzed on Guava 11HT (Luminex). Data was analyzed using Flowjo software.
Anti-HEL isotype control (Biolntron) was used as negative control.

| Binder | EC50 [nM] |
| --- | --- |
| B1 | 1.81 |
| B2 | 18.5 |
| B3 | 1.19 |
| B4 | 0.1 |
| B5 | 0.34 |
